Test [1] has as its target T1, Maltose Binding Protein fused to ROS1 full-length (MBP-ROS1) (Arabidopsis, UniProt Q9SJQ6 1-1393).
T1 sequence (looked up): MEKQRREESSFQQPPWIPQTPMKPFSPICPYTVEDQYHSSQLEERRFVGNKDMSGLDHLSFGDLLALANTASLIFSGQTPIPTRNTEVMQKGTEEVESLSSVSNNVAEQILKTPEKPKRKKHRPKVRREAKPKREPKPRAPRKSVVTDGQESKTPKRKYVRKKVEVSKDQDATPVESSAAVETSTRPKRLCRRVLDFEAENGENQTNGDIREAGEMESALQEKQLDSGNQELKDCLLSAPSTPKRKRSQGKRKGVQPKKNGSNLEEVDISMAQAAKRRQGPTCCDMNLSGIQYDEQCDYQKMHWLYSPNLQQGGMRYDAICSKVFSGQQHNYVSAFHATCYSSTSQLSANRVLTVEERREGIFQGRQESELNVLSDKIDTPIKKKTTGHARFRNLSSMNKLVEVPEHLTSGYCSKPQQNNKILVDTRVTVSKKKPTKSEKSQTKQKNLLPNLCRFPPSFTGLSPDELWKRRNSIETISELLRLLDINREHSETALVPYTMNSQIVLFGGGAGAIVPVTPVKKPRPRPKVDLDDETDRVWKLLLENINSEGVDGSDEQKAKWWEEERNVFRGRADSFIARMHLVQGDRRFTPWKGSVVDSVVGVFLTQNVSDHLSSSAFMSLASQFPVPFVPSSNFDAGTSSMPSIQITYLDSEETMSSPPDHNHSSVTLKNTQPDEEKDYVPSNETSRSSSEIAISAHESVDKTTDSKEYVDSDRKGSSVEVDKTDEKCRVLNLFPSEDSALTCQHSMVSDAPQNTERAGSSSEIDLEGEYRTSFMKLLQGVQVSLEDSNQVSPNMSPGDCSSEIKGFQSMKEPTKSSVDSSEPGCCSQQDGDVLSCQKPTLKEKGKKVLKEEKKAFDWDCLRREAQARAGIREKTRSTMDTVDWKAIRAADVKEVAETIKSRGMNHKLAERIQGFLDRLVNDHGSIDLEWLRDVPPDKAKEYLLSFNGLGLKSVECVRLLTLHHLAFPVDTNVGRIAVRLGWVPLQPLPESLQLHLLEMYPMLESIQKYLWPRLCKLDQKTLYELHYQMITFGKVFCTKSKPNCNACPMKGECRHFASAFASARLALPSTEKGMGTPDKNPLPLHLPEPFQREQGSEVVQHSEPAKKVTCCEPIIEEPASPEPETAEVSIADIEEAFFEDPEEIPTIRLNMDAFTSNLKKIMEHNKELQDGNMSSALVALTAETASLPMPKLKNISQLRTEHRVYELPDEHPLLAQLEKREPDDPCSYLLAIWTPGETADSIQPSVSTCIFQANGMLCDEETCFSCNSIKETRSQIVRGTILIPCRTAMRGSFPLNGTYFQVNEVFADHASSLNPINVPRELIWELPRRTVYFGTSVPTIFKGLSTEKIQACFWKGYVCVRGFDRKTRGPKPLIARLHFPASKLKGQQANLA
Nature of the test: pull-down.

For test [2], the target named is T2, Purified full-length ROS1 fused to His6-tag (FL-ROS1) (Arabidopsis, UniProt Q9SJQ6 1-1393).
T2 sequence (looked up): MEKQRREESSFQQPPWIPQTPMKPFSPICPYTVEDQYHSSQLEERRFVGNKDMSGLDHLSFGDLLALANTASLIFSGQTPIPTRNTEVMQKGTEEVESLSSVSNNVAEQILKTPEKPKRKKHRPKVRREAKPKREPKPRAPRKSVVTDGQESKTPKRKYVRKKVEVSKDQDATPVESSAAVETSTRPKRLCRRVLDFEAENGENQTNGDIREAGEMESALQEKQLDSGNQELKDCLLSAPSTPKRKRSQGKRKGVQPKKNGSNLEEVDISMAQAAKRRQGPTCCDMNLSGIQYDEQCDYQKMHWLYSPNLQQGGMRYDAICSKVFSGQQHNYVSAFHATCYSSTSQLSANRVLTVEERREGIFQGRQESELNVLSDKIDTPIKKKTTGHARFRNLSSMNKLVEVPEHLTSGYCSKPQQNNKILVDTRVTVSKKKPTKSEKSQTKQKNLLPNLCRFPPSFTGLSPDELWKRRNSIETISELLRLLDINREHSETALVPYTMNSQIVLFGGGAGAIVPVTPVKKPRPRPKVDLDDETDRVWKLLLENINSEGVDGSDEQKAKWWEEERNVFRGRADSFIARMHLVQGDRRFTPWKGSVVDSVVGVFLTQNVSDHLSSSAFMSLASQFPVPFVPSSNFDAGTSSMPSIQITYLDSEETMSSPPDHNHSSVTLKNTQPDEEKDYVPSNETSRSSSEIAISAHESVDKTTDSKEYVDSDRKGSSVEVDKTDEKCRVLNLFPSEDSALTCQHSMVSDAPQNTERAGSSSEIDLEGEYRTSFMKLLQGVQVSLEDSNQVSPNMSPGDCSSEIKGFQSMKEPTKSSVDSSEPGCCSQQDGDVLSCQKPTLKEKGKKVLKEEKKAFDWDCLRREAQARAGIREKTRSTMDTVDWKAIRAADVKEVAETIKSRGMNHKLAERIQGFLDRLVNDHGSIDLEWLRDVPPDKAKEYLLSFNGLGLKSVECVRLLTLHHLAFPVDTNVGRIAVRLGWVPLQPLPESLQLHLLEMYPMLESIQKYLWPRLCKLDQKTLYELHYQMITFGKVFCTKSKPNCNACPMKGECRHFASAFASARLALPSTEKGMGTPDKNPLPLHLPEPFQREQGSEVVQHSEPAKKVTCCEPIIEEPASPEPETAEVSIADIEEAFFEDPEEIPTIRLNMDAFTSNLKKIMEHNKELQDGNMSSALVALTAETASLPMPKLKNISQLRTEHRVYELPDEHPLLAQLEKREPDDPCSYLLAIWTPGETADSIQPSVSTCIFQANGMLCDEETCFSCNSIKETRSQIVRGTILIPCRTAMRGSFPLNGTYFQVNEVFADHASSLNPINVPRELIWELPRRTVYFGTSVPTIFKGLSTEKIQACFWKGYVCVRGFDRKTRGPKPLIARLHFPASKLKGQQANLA
Nature of the test: pull-down.

B1: His-tagged ZDP (Arabidopsis thaliana zinc finger DNA 3'-phosphoesterase) (enzyme, UniProt Q84JE8 1-694, looked up)
chain: MITVAPFVSLRFQFPLYIINRSTLFFRERTQYLVYNTCHILRTTAKTMPVVAEYAKSNRSSCRSCSNKIAVKSLRLGLISKGRGGVDMTRWHHFDCFPTDSESIASVDDIQGLSALEKEDQDALTKLVEQCGKVPAKKPDEKKGKAKKHIMGPKGLTKAATSSKVIADNAKSSRSSCNRCSQTIVSKDLRVGLVTEDSRGFDITRWHHLGCFPIDFHPIDSVEDIGGYSSLEKGDQMELKYLAEVNKKDKTLIDDVQKMDEGDDEAIADNELTEETKKGKHSPVAKLVEQPGEPAKEDEDEESKKPASDEISEQKTKDVKNSPDSSKVISEYAKSSRSTCKKCSQTIAAKELRLGLVTRNFRGFDMKQWHHLGCFPVDSDPIVSVEDIGGFSELQSGDQDALKELVQQCGKQTLVDKMDEDNDDTEAKIKLTEETNKRKHSEVGEMVEEDESLTKAKQQMAKTHKVNMSESTSQVEVEAEITLSASDVKDKYRDANLLPKWKAFETVIFLERDDGLNDSEKIAAFDFDGCLAKTSVKIVGADAWSLMYPSIPEKLQSLHDQGYKLVIFTNESNIDRWKNKRQAAVDSKIGRLNSFIERVKVPIQVFIACGVSSSGGKGGKDDLYRKPKAGMWQLMKKHFNSGIAIDMDKSFYVGDAAGRKMDHSDADIKFAQASGLKFFTPEEYFIPSSTSPGT
In the case of B1, in test [1], the binding result is recorded as “binds”.

B2: MBP-ZDP (enzyme, Arabidopsis thaliana, UniProt Q84JE8 1-694, looked up)
chain: MITVAPFVSLRFQFPLYIINRSTLFFRERTQYLVYNTCHILRTTAKTMPVVAEYAKSNRSSCRSCSNKIAVKSLRLGLISKGRGGVDMTRWHHFDCFPTDSESIASVDDIQGLSALEKEDQDALTKLVEQCGKVPAKKPDEKKGKAKKHIMGPKGLTKAATSSKVIADNAKSSRSSCNRCSQTIVSKDLRVGLVTEDSRGFDITRWHHLGCFPIDFHPIDSVEDIGGYSSLEKGDQMELKYLAEVNKKDKTLIDDVQKMDEGDDEAIADNELTEETKKGKHSPVAKLVEQPGEPAKEDEDEESKKPASDEISEQKTKDVKNSPDSSKVISEYAKSSRSTCKKCSQTIAAKELRLGLVTRNFRGFDMKQWHHLGCFPVDSDPIVSVEDIGGFSELQSGDQDALKELVQQCGKQTLVDKMDEDNDDTEAKIKLTEETNKRKHSEVGEMVEEDESLTKAKQQMAKTHKVNMSESTSQVEVEAEITLSASDVKDKYRDANLLPKWKAFETVIFLERDDGLNDSEKIAAFDFDGCLAKTSVKIVGADAWSLMYPSIPEKLQSLHDQGYKLVIFTNESNIDRWKNKRQAAVDSKIGRLNSFIERVKVPIQVFIACGVSSSGGKGGKDDLYRKPKAGMWQLMKKHFNSGIAIDMDKSFYVGDAAGRKMDHSDADIKFAQASGLKFFTPEEYFIPSSTSPGT
As to B2, in test [2], the binding result is “binds”.

Values taken from paper PMC3278721 (Molecular Cell, 2012).
